Assay results taken from a protein production outcome set (Wang et al. 2014).

Assay: label from the status in PepcDB records
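Further: failed if final PepcDB status was selected cloned or expressed and not failed if soluble or beyond.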

| Sequence | protein production |
| --- | --- |
| MIDFLDVQKETPRIRIAIDRVGVKNIKFPLKIHDDFAFLTLNLFVDVPADRKGADMSRAVESIQKVINAGSYGERIGDIGIAICDEALSRFNYSEKAQCEVNIQYYRRSGERYLEYRMYVETAKDRKQIMKNEIGISYVTMTACPCAMETTRALISMDNPDISDAISAIPTITHNQRNVTKLTVDNRSKMITVWDLADVMERVQGKPLDSLLKRVEEGRLVYSAHRNPKFVEDVVREIAYEAARVLGVPDEATIKVSSESDESIHPHNAYAEIDTTAGELRKLHLH | not failed |
| MGHHHHHHSHHTTEAKNDLRVGGRFVSKMEAKDGSFGFDFGGTYNKVRLYEFISYIMDDDRSVEITFKPEKDKTYIVESFEAEKSNPIDLQQKGWQAILDNFKKYVEENKLRGREK | failed |
| MKHIIILGDGMADWPAESLGNKTLLQYSSTPYMDKLAAMGRTGRLVTVAPGFHPGSEVANMSVMGYNLPKVYEGRGPLEAASIGVELQPGDMAMRCNIICIEDEKIKNHSAGHITTEEADVLVRYLEEKLGSDRIHFYTGVQYRHLLVIKGGNKQLDCTPPHDVPLQPFRPLMVKAEVPEAQETAGLINNLILASQELLADHPVNQKRIAEGKDPANSIWPWSPGYRPQMEPLSGKYPAIKKGAVISAVDLINGIGHYAGLRRIAVEGATGLYNTNYENKVAAALEALKTDDFVYLHIEASDEAGHEGDFKLKQFTIENLDKRVVGPVYEAVKDWDEPVAIAVLPDHPTPCELRTHTAEPVPFLIYYPGIEPDCVQTFDEVACVEGSYGILKEDEFMNEFMKK | failed |
| MKQKFSSLFVLLVLLLTGLQVSAQSTPKPFDIEQPSLRVFLPAPELATGRAVVACPGGGYSGLAVNHEGYDWAPYFNKQGIALIVLKYRMPKGDRTLPISDAEAAMKMVRDSADVWNLNPNDIGIMGSSAGGHLASTIATHAPEALRPNFQILFYPVITMDKSFTHMGSHDNLLGKDASADLEKEFSNEKQVTKETPRAFIVYSDDDKVVPPANGVNYYLALNKKGVPSVLHIYPTGGHGWGIREDFLYKSEMQNELTSWLRSFKAPRKDAVRVACIGNSITFGAGIRNRSRDSYPSVLARMLGDSYWVKNFGVSARTMLNKGDHPYMNEPAYKNALAFNPNIVVIKLGTNDSKSFNWKYKADFMKDAQTMIDAFKGLPSQPKIYLCYPSKAYLTGDGINDDIISKEIIPMIKKLAKKNDLSVIDLHTAMDGMPELFPDRIHPNEKGAQVMAKAVYQSISTLK | failed |
| MVSSVLPNPTSAECWAALLHDPMTLDMDAVLSDFVRSTGAEPGLARDLLEGKNWDLTAALSDYEQLRQVHTANLPHVFNEGRGPKQPEREPQPGHKVERPCLQRQDDIAQEKRLSRGISHASSAIVSLARSHVASECNNEQFPLEMPIYTFQLPDLSVYSEDFRSFIERDLIEQATMVALEQAGRLNWWSTVCTSCKRLLPLATTGDGNCLLHAASLGMWGFHDRDLVLRKALYTMMRTGAEREALKRRWRWQQTQQNKEEEWEREWTELLKLASSEPRTHFSKNGGTGGGVDNSEDPVYESLEEFHVFVLAHILRRPIVVVADTMLRDSGGEAFAPIPFGGIYLPLEVPPNRCHCSPLVLAYDQAHFSALVSMEQRDQQREQAVIPLTDSEHKLLPLHFAVDPGKDWEWGKDDNDNARLAHLILSLEAKLNLLHSYMNVTWIRIPSETRAPLAQPESPTASAGEDVQSLADSLDSDRDSVCSNSNSNNGKNGKDKEKEKQRKEKDKTRADSVANKLGSFSKTLGIKLKKNMGGLGGLVHGKMGRANSANGKNGDSAERGKEKKAKSRKGSKEESGASASTSPSEKTTPSPTDKAAGASPAEKGGGPRGDAWKYSTDVKLSLNILRAAMQGERKFIFAGLLLTSHRHQFHEEMIGYYLTSAQERFSAEQEQRRRDAATAAAAAAAAAAATAKRPPRRPETEGVPVPERASPGPPTQLVLKLKERPSPGPAAGRAARAAAGGTASPGGGARRASASGPVPGRSPPAPARQSVIHVQASGARDEACAPAVGALRPCATYPQQNRSLSSQSYSPARAAALRTVNTVESLARAVPGALPGAAGTAGAAEHKSQTYTNGFGALRDGLEFADADAPTARSNGECGRGGPGPVQRRCQRENCAFYGRAETEHYCSYCYREELRRRREARGARP | failed |
| MVPSASDAWRTALRDLRETLPERTVQNWLDPIQPLDLSTDEGSPTLTLQVPTPFGIQYLRSRFQRSIRQAVSEAVGEPTDVTYQVAPEEERPDEIATDSGSSGSAPDEPDASSSPQDRPSSAPSSDQAGRSSTSPRPSEPVSSSSPAGREAINQSPSPDASTSGGASSPTGPTTPRPSSPDVADVSDAGRTDDASAPSPPQTDAGSPDERSALYEQAKQHLRPEYTFDEFVEGDGNRLARSAAFAVAQEPGSTNYNPLLVYGGVGLGKTHLAQAVANYALEHNTAERVLYVSSDRFTSQFVQSVRENRIAAFSSYYRQADLLIVDDVQFFGEKEKTQEEFFHIFNDLHQNGKQIFLCADRPPAEIPGIEERLLSRFQWGLSADIQRPDLETRIAILQRKAARQDIAVSPDVLELIAQRIDSNVRQLEGALTRLTALVQLDDRTLDLDTARRFLREHTDEGADALNADDIIEQVAEYFRLEKGDLLSRSRKQTVAQARQIAMYLCRELTDESYDHIGSRFGGRDHSTVIHAYRKIEEDLESDTELQDDISSLQSNLQDRSLSSSL | failed |
| MKAIMRRLIMTNFFNTPLFGLTLSVLAYTLGLSLYRRFPNPLTTPLLVSTALIIVILHYTGICYRDYYVGGSYLNSLIIPSTVALAVPFYKNLHLMRHHCKSILIGSTVACILNTTYTALIAKLFGMDYFLAISLFPKSVTTAMAVGISEKMQGITTVTLVVVVITGILTSVLGPVFLKMIGIKDPVAIGLSLGGTGHAVGTGTAFRYGQVAGAMGGLSIAVTGILYVFISPIVASLILR | failed |
| MLDSINRVLDRPDFGKLFLRVSFSVLMLFHGWHKLHGGIGFIEGMLTNAGLPAFVGYGVYVGEIIIPIMMILGIFTRPAALIFSFTMFVASLLVHSGDFLSLEKTGAWAVEGAAVFFFAGIAIALLGSGKYSVMSNPRWR | failed |
| MELREVAAVSGRGGLFKILKPTKNGVILEAIDPSKKRFVAGANERVSILNEISIYTTDKDGSVPLESVLHKIHAKYGADTKITGKSSNDELGNFLSSILPEYDREKVYHSDIKKLANWYAILQANFPELLVAKKEAAPKTEAKPAEAKEEKVKAVKEEKAEAPAPAAKKAAAKKVKEVSEEATEKPAAKKAAAKKTAKAKGE | failed |
| MSLSVPFEYTPIAQSVLDECEHLDTASLSDALDSLGIDGGLPGIASQVPGTRCVGIAFTVQYQPVDASEGFRGAANYIDQVPSGSVIVSSNSGRHDCTVWGDIMTHFALANGIKGTVIDGVARDIDTVINCNYPLFSRGRFMQSAKNRTQLKAVQVPLVIDGITIQPGDLMVCDGSGCVVVPQQLAAEVVLRARAVEQTERRIIEAISSGSTLEQARMTYRYDQPWLSEAEHGGTQEGHHHHHH | not failed |
| MVLFHLIKKESLQIFRNRTALLMMVIFPILMIVILSFAFKSSFNTATTVPKLTIRYQLEGEKTDYQKNFLAFLKVLNQKLHLETKPSNSLEKDRQRVSEGALTAVLEVKKNQTIKVITNNINQQNADLINMLVKNYVDNAKTYDSIAALYPQQLNHIRKRSVDYVKVSSIQTSKGMTSADYYAISMFTMITFYSMMSAMNLVLSDRQQRITNRIHLTGVSPSFLVFGKLIGAMLATTVQLSLLYIFTRFVLRVNWGTNEWMLIGITASLVYLSVAIGIGLGISIKNEAFLTVASNTIIPIFAFLGGSYVPLTTLHSSIINQLSNISPIKWVNDSLFYLIFGGQYNPIPVTLIVNISIGTIFIILALIGMRKQVTT | failed |
| MTSAAMATAYFDKGNQCAARCDWLGAIEAFDHCLSLNPRDWQALANRGNAKVQREDLSGALEDYLAAAALNPSSCNIKSNLAVLLKELGELDLAAALLEEVLAAEPAHVDAWSNLGIVRQHQRRYQDAIACQQNALAIAGPSVARYSNLGNAYSCALMLDAAIEVQRKGLELAPDDANLQFNQSITLLTAGRYAEAWPLYEARWRSVLRPRLTQKRWQGEALGERTLLLWSEQGLGDSLQMVRLLSCLRRAHPQARLLLACPVSFHRLFAQFDGVSLLPADALPEHDCQLPLMSLPWLLGITLDNLPTEPYLRVPGGMVPPLPAASRRRVGVVWESGLWGVGVADLGRQHKSIPAGLFAEICRVPGIEFIALQPGGVPAELSDWVRACPISDFADTAALAAQMDLVICVDTAILHLAGAMGRPVWALLRAESAPFFLADAETAPWYPSVKLWRQPAPGAWEPMLKQIAEALAGRQTF | failed |
| MKRLLERSHALLTAPVGATPRVLALVAALLVVPTYVAPLWNLTMFAPQYGDGLRLDIYSYKLEGGNHGQDLKEINLLNHYIGMHDLAEEDFREFKWMPFVMGGLALVFLRAAVMGRVLDLLDSLVVFTWFGLFSLWSFGYKLYSYGHDLAPGAPVKVPPFMPPMIGSAQLANFEVYSYPGLGSYALFAVGLALAVALALGVRATLRRSAAAPLPRGGP | failed |
| MGNTDKLMNQIFDLKFTSKSLQRQSRKCEKEEKAEKLKVKKAIEKGNMDGARIYAENAIRKRSEQMNYLRLASRLDAVVARLDTQAKMTTITKSMTNIVKSLESSLATGNLQKMSETMDSFEKQFVNMEVQAEFMENAMAGSTSLSTPEGEVNSLMQQVADDYGLEVSVGLPQPAGHAIPTKTEEKVDEDDLSRRLAELKARG | failed |
| MDTTCLVLTWMGSRVPIETIEEDGEFDWEAAVKEIDLACLKTTNAHPPITENLTKPPAKRQSTLDKFIGRTEPKPENHQVVSECGGNDNDNSLLVEIDPEAAKTWIYRGLLRLLTF | failed |
| MTAPRYPRDMIGYGATPPNANWPGNARIAVQIVLNYEEGGENNILHGDAASEAFLSEIVGAAPWPGQRHWNMETIYEYGARAGFWRLHRLMRDLPVTVYGVATALARSPDQVAAMKSAGWEIASHGLKWVEHKDMPEEEERAQIAEAIRLHTEVTGSRPRGWYTGRCSMNTVRLASEAGIDYIADTYDDDLPYWKRIDGRDQLIVPYTLDCNDMRFATPQGFNSGDQFFAYLKDSFDALYAEGGEGAPKMLSIGLHCRLIGRPGRVMALKRFLDYARGHEDVWFATRLQIAEHWVREHPPVARTRPSEMPKADFVAAYGGIFEHSPWIAERAHGLELGPAHDTAGGLHNALCRMFRSASAEERLGVLTAHPDLAGKLAQAKRLTAESTSEQASAGLDALTDEERTTFTRLNTEYVARFGFPFIIAVRDHDKASILAAFQRRIGNDRETEFAEACRQVERIAEFRLRDVLPSLEHHHHHH | not failed |
| RTNRLSAVQSNKMIVRAMERGVSAERLGKALGLSPQTIRQRFRLLNGICAEVVALLGDTDCPANVFNLLRQMKPLRQIEAAELMIGNKNLSVLLAKALLAATPPDQLVMIKKPSQDHQVSAESMARLERELAALQMQIKTVEEDYGPDVLHLTVIKGYLTKLLANAAVVRWLARHQPEYLKEFQSIAELTELPWADNGPEDDLQSTTAEG | not failed |
| MGIDPVTHRATHKTKRVEATANTFKAVATEWLKEVHQKAVVEEHYNRNVRRLEQHAFPKLGRRPISEIEPSDILEPLRDIAKTGRRETAKRVKTLIGQVFRYTVSTGRAQRDMTADIRGILPALEHHHHHH | failed |
| MRILLVLAHPLEDSFAAAVARTAREALEASGHVVDLFDLYAENFDPRLSKAERGGYFDQPYDTSAVADIVARLKAADGLILVFPQWWFNFPAILKGFFDRVFAPGVAFSHDAAGGRIVPQLTHIRLLYALTTTGSPWWLVRLYMGDPVRRLLKRGIAAFCSKGLNFRMLSLHDMDRASDVKRRAHLDRVRKLLSAIR | failed |
| MAAPELLIPWADFLLCVALIAVAGNRLSRYGDVIAEKTGLSGSWIGLILLATATSLPELITGAAAVTAAGAPDIAAGDVLGSCVFNLVILVALDFLHRHESVYRRASQGHLLSAGFGIILLGLVGVNLLLADKHIVPTLGWVGLYSPLLGLLYLFSMRAVFLYEREQMAAFTEDMTEQYPGIRLRRAVMWYVAVAAVVVGAGVWLPSIGTTLAEVMGWNKSFVGTLFVAAATSMPELSVTIGAVRIRAVDMAIANLLGSNLFDLCILAIDDLAYLPGPLLSHVSSVHALSAFSAMVMTGIFIVGLLYRAGTRLFKTVGWVSIALLLVYLGNAYVLYLYDK | failed |
